Details in all cases: both partners purified
One experiment concerns the target T1, p97 wild type (1-806) (UniProt P55072 1-806).
T1 construct: p97/VCP, residues 1-806; also called p97-wt; p97-fl; source: E. coli BL21 DE3 (T1r), purified (Ni-NTA, anion exchange)
In words: fluorescence polarisation; displacement titration: UBXD1 incubated with 0.1 µM 5,6-FAM-p97-C10 peptide to 50% saturation, concentration of p97 successively increased; competitive binding model; 50 mM NaKPi buffer, pH 7.5, 25 °C.

The target of the next experiment is T2, Ubiquitin-GST (UniProt P0CG48 1-76).
T2 construct: ubiquitin fused at its C-terminus to GST; also called Ub-GST; source: E. coli BL21 DE3 (T1r), purified; not shown: GST, C-terminal, kept
In words: pull-down; screening pulldown: 25 µM Ubiquitin-GST, 1 µM p97 (hexamer) and UBXD1 variant with GSH beads, 30 min, 4 °C, IP buffer; Coomassie stain.

The next experiment deals with T3, p97-ΔC (1–766) (UniProt P55072 1-766).
T3 construct: p97/VCP, residues 1-766; source: E. coli BL21 DE3 (T1r), purified (Ni-NTA, anion exchange)
T3 sequence (P55072 1-766, stated change not applied): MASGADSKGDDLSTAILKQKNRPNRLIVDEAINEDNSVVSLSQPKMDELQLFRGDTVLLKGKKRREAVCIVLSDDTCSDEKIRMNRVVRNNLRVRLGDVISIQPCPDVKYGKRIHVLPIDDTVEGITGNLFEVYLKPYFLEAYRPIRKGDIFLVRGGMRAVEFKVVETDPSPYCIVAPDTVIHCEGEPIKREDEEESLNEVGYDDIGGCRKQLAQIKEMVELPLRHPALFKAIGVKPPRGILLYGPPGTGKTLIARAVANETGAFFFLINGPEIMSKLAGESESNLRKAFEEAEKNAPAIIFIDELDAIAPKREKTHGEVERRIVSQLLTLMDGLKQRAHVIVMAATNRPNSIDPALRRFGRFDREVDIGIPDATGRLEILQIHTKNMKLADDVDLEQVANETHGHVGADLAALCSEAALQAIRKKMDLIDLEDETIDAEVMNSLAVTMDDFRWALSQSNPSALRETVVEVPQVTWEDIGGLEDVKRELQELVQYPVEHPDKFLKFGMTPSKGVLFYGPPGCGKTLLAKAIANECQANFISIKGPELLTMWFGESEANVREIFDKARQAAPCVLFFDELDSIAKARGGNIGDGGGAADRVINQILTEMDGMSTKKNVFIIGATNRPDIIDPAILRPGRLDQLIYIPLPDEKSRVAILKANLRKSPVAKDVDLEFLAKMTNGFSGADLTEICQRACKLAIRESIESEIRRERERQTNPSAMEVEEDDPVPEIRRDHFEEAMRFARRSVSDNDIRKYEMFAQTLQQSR
Briefly: fluorescence polarisation; fluorescence anisotropy; Atto594-labeled UBXD1 proteins, p97 constructs titrated; 50 mM NaKPi pH 7.5, 25 °C; all fitted with stoichiometry n = 1. (In general: In fluorescence polarisation assays a small probe gives low polarisation when free and higher when bound to something large.)

The next experiment deals with T4, p97-ΔD2-C (1–480) (UniProt P55072 1-480).
T4 construct: p97/VCP, residues 1-480; The pull-down methods give the concentration of the p97 variant as hexamer; also called ND1L; source: E. coli BL21 DE3 (T1r), purified (Ni-NTA, anion exchange)
T4 sequence (P55072 1-480, stated change not applied): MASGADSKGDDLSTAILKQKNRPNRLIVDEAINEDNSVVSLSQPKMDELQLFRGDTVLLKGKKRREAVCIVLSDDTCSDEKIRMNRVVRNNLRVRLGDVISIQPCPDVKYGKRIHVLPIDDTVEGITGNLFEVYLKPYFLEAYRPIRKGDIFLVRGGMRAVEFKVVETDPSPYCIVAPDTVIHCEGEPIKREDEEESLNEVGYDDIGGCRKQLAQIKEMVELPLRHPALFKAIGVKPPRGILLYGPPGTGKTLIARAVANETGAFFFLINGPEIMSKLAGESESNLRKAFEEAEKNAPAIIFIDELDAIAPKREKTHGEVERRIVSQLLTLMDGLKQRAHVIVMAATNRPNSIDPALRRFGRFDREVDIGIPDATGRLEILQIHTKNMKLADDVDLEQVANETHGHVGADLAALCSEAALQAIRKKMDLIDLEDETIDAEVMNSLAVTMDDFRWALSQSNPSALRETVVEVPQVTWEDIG
The description is as above.

Another experiment has as its target T5, p97-wt (1–806) (UniProt P55072 1-806).
T5 construct: p97/VCP, residues 1-806; also called VCP; p97-fl; source: E. coli BL21 DE3 (T1r), purified (Ni-NTA, anion exchange)
Described as above.

For experiment [1], the target named is T6, ubiquitin-GST fusion protein (Ub-GST) (UniProt P0CG48 1-76).
T6 construct: source: E. coli BL21 DE3 (T1r), purified
In words: pull-down; screen: 25 μM ubiquitin-GST, 1 μM p97 (hexamer) and equal amounts of UBXD1 variant (released from GSH beads by PreScission) with GSH beads, 30 min, 4 °C, IP buffer.

T5 sequence (P55072 whole entry, the tested form may be a part): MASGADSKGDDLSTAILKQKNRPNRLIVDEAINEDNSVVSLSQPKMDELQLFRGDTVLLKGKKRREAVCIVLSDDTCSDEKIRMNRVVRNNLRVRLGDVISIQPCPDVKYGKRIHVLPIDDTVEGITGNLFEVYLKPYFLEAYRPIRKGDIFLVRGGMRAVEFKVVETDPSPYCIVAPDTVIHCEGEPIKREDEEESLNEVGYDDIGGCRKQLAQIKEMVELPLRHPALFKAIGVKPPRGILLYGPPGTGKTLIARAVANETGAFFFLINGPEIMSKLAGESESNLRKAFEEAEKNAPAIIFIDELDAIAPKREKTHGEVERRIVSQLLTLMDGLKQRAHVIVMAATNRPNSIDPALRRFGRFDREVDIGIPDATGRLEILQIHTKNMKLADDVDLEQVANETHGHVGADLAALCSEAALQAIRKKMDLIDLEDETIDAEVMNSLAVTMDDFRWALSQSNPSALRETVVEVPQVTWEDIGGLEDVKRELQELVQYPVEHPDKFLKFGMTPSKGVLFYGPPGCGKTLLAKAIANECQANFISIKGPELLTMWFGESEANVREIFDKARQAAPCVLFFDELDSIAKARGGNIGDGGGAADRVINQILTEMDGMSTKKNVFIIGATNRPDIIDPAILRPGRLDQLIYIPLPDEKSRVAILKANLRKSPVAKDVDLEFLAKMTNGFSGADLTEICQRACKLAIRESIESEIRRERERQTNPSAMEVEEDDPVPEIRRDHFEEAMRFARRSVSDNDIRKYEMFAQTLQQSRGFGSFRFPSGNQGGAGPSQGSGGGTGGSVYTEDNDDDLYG
T1 sequence (P55072 whole entry, the tested form may be a part): as above

B1: UBXD1-wt (1-441) (natural protein, human, UniProt Q9BZV1 1-441, looked up)
chain: MKKFFQEFKADIKFKSAGPGQKLKESVGEKAHKEKPNQPAPRPPRQGPTNEAQMAAAAALARLEQKQSRAWGPTSQDTIRNQVRKELQAEATVSGSPEAPGTNVVSEPREEGSAHLAVPGVYFTCPLTGATLRKDQRDACIKEAILLHFSTDPVAASIMKIYTFNKDQDRVKLGVDTIAKYLDNIHLHPEEEKYRKIKLQNKVFQERINCLEGTHEFFEAIGFQKVLLPAQDQEDPEEFYVLSETTLAQPQSLERHKEQLLAAEPVRAKLDRQRRVFQPSPLASQFELPGDFFNLTAEEIKREQRLRSEAVERLSVLRTKAMREKEEQRGLRKYNYTLLRVRLPDGCLLQGTFYARERLGAVYGFVREALQSDWLPFELLASGGQKLSEDENLALNECGLVPSALLTFSWDMAVLEDIKAAGAEPDSILKPELLSAIEKLL
notes: also called UBXD1-fl; UBXN6; not shown: GST, N-terminal, cleaved
B1: the dissociation constant (Kd) (commonly a measure of binding affinity in units of concentration) with p97 wild type (1-806) came to 1.1 ± 0.1 µM.

B2: UBXD1-His E368A/D373A (natural protein, human, UniProt Q9BZV1 1-441, looked up)
chain: MKKFFQEFKADIKFKSAGPGQKLKESVGEKAHKEKPNQPAPRPPRQGPTNEAQMAAAAALARLEQKQSRAWGPTSQDTIRNQVRKELQAEATVSGSPEAPGTNVVSEPREEGSAHLAVPGVYFTCPLTGATLRKDQRDACIKEAILLHFSTDPVAASIMKIYTFNKDQDRVKLGVDTIAKYLDNIHLHPEEEKYRKIKLQNKVFQERINCLEGTHEFFEAIGFQKVLLPAQDQEDPEEFYVLSETTLAQPQSLERHKEQLLAAEPVRAKLDRQRRVFQPSPLASQFELPGDFFNLTAEEIKREQRLRSEAVERLSVLRTKAMREKEEQRGLRKYNYTLLRVRLPDGCLLQGTFYARERLGAVYGFVRAALQSAWLPFELLASGGQKLSEDENLALNECGLVPSALLTFSWDMAVLEDIKAAGAEPDSILKPELLSAIEKLL
notes: the mutant's name is printed in four ways; not shown: GST, N-terminal, cleaved
With B2, the binding result with Ubiquitin-GST is on record as “binds”.

B3: UBXD1-VIMx (1–441, DI11/12AA, RL62/63AA) (natural protein, human, UniProt Q9BZV1 1-441, looked up)
chain: MKKFFQEFKAAAKFKSAGPGQKLKESVGEKAHKEKPNQPAPRPPRQGPTNEAQMAAAAALAAAEQKQSRAWGPTSQDTIRNQVRKELQAEATVSGSPEAPGTNVVSEPREEGSAHLAVPGVYFTCPLTGATLRKDQRDACIKEAILLHFSTDPVAASIMKIYTFNKDQDRVKLGVDTIAKYLDNIHLHPEEEKYRKIKLQNKVFQERINCLEGTHEFFEAIGFQKVLLPAQDQEDPEEFYVLSETTLAQPQSLERHKEQLLAAEPVRAKLDRQRRVFQPSPLASQFELPGDFFNLTAEEIKREQRLRSEAVERLSVLRTKAMREKEEQRGLRKYNYTLLRVRLPDGCLLQGTFYARERLGAVYGFVREALQSDWLPFELLASGGQKLSEDENLALNECGLVPSALLTFSWDMAVLEDIKAAGAEPDSILKPELLSAIEKLL
modifications: Atto594 (NHS ester; the UBXD1 proteins were labeled for anisotropy)
notes: also called UBXD1-VIMx mutant; not shown: GST, N-terminal, cleaved
As to B3, the equilibrium dissociation constant (Kd) worked out at 87 ± 1 µM with p97-ΔC (1–766) and 466 ± 9 µM with p97-ΔD2-C (1–480).

B4: UBXD1-wt (1–441), Atto594-labeled for fluorescence anisotropy with p97 (natural protein, human, UniProt Q9BZV1 1-441, looked up)
chain: MKKFFQEFKADIKFKSAGPGQKLKESVGEKAHKEKPNQPAPRPPRQGPTNEAQMAAAAALARLEQKQSRAWGPTSQDTIRNQVRKELQAEATVSGSPEAPGTNVVSEPREEGSAHLAVPGVYFTCPLTGATLRKDQRDACIKEAILLHFSTDPVAASIMKIYTFNKDQDRVKLGVDTIAKYLDNIHLHPEEEKYRKIKLQNKVFQERINCLEGTHEFFEAIGFQKVLLPAQDQEDPEEFYVLSETTLAQPQSLERHKEQLLAAEPVRAKLDRQRRVFQPSPLASQFELPGDFFNLTAEEIKREQRLRSEAVERLSVLRTKAMREKEEQRGLRKYNYTLLRVRLPDGCLLQGTFYARERLGAVYGFVREALQSDWLPFELLASGGQKLSEDENLALNECGLVPSALLTFSWDMAVLEDIKAAGAEPDSILKPELLSAIEKLL
modifications: Atto594 (NHS ester, ratio 1:1.2)
notes: not shown: GST, N-terminal, cleaved
Regarding B4, the dissociation constant (Kd) with p97-ΔC (1–766) worked out at 11.9 ± 0.2 µM; in the experiment with p97-wt (1–806), 1.64 µM.

B5: UBXD1 R305A (full length, recombinant) (natural protein, human, UniProt Q9BZV1 1-441, looked up)
chain: MKKFFQEFKADIKFKSAGPGQKLKESVGEKAHKEKPNQPAPRPPRQGPTNEAQMAAAAALARLEQKQSRAWGPTSQDTIRNQVRKELQAEATVSGSPEAPGTNVVSEPREEGSAHLAVPGVYFTCPLTGATLRKDQRDACIKEAILLHFSTDPVAASIMKIYTFNKDQDRVKLGVDTIAKYLDNIHLHPEEEKYRKIKLQNKVFQERINCLEGTHEFFEAIGFQKVLLPAQDQEDPEEFYVLSETTLAQPQSLERHKEQLLAAEPVRAKLDRQRRVFQPSPLASQFELPGDFFNLTAEEIKREQALRSEAVERLSVLRTKAMREKEEQRGLRKYNYTLLRVRLPDGCLLQGTFYARERLGAVYGFVREALQSDWLPFELLASGGQKLSEDENLALNECGLVPSALLTFSWDMAVLEDIKAAGAEPDSILKPELLSAIEKLL
notes: UBXD1 (UBXN6), human, mutant in the context of recombinant UBXD1-fl
Regarding B5, the binding result in experiment [1] is recorded as “binds”.

B6: UBXD1 Q278A/F286A/L288A (full length, recombinant) (natural protein, human, UniProt Q9BZV1 1-441, looked up)
chain: MKKFFQEFKADIKFKSAGPGQKLKESVGEKAHKEKPNQPAPRPPRQGPTNEAQMAAAAALARLEQKQSRAWGPTSQDTIRNQVRKELQAEATVSGSPEAPGTNVVSEPREEGSAHLAVPGVYFTCPLTGATLRKDQRDACIKEAILLHFSTDPVAASIMKIYTFNKDQDRVKLGVDTIAKYLDNIHLHPEEEKYRKIKLQNKVFQERINCLEGTHEFFEAIGFQKVLLPAQDQEDPEEFYVLSETTLAQPQSLERHKEQLLAAEPVRAKLDRQRRVFAPSPLASQAEAPGDFFNLTAEEIKREQRLRSEAVERLSVLRTKAMREKEEQRGLRKYNYTLLRVRLPDGCLLQGTFYARERLGAVYGFVREALQSDWLPFELLASGGQKLSEDENLALNECGLVPSALLTFSWDMAVLEDIKAAGAEPDSILKPELLSAIEKLL
notes: as for B5
In the case of B6, the binding result in experiment [1] was “binds”.

B7: UBXD1 R307A (full length, recombinant) (natural protein, human, UniProt Q9BZV1 1-441, looked up)
chain: MKKFFQEFKADIKFKSAGPGQKLKESVGEKAHKEKPNQPAPRPPRQGPTNEAQMAAAAALARLEQKQSRAWGPTSQDTIRNQVRKELQAEATVSGSPEAPGTNVVSEPREEGSAHLAVPGVYFTCPLTGATLRKDQRDACIKEAILLHFSTDPVAASIMKIYTFNKDQDRVKLGVDTIAKYLDNIHLHPEEEKYRKIKLQNKVFQERINCLEGTHEFFEAIGFQKVLLPAQDQEDPEEFYVLSETTLAQPQSLERHKEQLLAAEPVRAKLDRQRRVFQPSPLASQFELPGDFFNLTAEEIKREQRLASEAVERLSVLRTKAMREKEEQRGLRKYNYTLLRVRLPDGCLLQGTFYARERLGAVYGFVREALQSDWLPFELLASGGQKLSEDENLALNECGLVPSALLTFSWDMAVLEDIKAAGAEPDSILKPELLSAIEKLL
notes: as for B5
With B7, in experiment [1], the binding result is “binds”.

B8: UBXD1 R305A/R307A/V316A (full length, recombinant) (natural protein, human, UniProt Q9BZV1 1-441, looked up)
chain: MKKFFQEFKADIKFKSAGPGQKLKESVGEKAHKEKPNQPAPRPPRQGPTNEAQMAAAAALARLEQKQSRAWGPTSQDTIRNQVRKELQAEATVSGSPEAPGTNVVSEPREEGSAHLAVPGVYFTCPLTGATLRKDQRDACIKEAILLHFSTDPVAASIMKIYTFNKDQDRVKLGVDTIAKYLDNIHLHPEEEKYRKIKLQNKVFQERINCLEGTHEFFEAIGFQKVLLPAQDQEDPEEFYVLSETTLAQPQSLERHKEQLLAAEPVRAKLDRQRRVFQPSPLASQFELPGDFFNLTAEEIKREQALASEAVERLSALRTKAMREKEEQRGLRKYNYTLLRVRLPDGCLLQGTFYARERLGAVYGFVREALQSDWLPFELLASGGQKLSEDENLALNECGLVPSALLTFSWDMAVLEDIKAAGAEPDSILKPELLSAIEKLL
notes: as for B5
As to B8, the binding result in experiment [1] was “binds”.

B9: UBXD1 R274A (full length, recombinant) (natural protein, human, UniProt Q9BZV1 1-441, looked up)
chain: MKKFFQEFKADIKFKSAGPGQKLKESVGEKAHKEKPNQPAPRPPRQGPTNEAQMAAAAALARLEQKQSRAWGPTSQDTIRNQVRKELQAEATVSGSPEAPGTNVVSEPREEGSAHLAVPGVYFTCPLTGATLRKDQRDACIKEAILLHFSTDPVAASIMKIYTFNKDQDRVKLGVDTIAKYLDNIHLHPEEEKYRKIKLQNKVFQERINCLEGTHEFFEAIGFQKVLLPAQDQEDPEEFYVLSETTLAQPQSLERHKEQLLAAEPVRAKLDRQARVFQPSPLASQFELPGDFFNLTAEEIKREQRLRSEAVERLSVLRTKAMREKEEQRGLRKYNYTLLRVRLPDGCLLQGTFYARERLGAVYGFVREALQSDWLPFELLASGGQKLSEDENLALNECGLVPSALLTFSWDMAVLEDIKAAGAEPDSILKPELLSAIEKLL
notes: as for B5
With B9, the binding result in experiment [1] is recorded as “binds”.

B10: UBXD1-ΔUBX-C (1–332), recombinant, for fluorescence anisotropy (domain or fragment, human, UniProt Q9BZV1 1-332, looked up)
chain: MKKFFQEFKADIKFKSAGPGQKLKESVGEKAHKEKPNQPAPRPPRQGPTNEAQMAAAAALARLEQKQSRAWGPTSQDTIRNQVRKELQAEATVSGSPEAPGTNVVSEPREEGSAHLAVPGVYFTCPLTGATLRKDQRDACIKEAILLHFSTDPVAASIMKIYTFNKDQDRVKLGVDTIAKYLDNIHLHPEEEKYRKIKLQNKVFQERINCLEGTHEFFEAIGFQKVLLPAQDQEDPEEFYVLSETTLAQPQSLERHKEQLLAAEPVRAKLDRQRRVFQPSPLASQFELPGDFFNLTAEEIKREQRLRSEAVERLSVLRTKAMREKEEQRGLR
modifications: Atto594 (NHS ester; the UBXD1 proteins were labeled for anisotropy)
notes: also called UBX deletion mutant of UBXD1; not shown: GST, N-terminal, cleaved
As for B10, the dissociation constant (Kd) came out at 18.6 ± 0.7 µM in the experiment with p97-ΔC (1–766) and 26 ± 2 µM with p97-ΔD2-C (1–480).

B11: UBXD1-eUBX-C (269–441), for fluorescence anisotropy (domain or fragment, human, UniProt Q9BZV1 269-441, looked up)
chain: KLDRQRRVFQPSPLASQFELPGDFFNLTAEEIKREQRLRSEAVERLSVLRTKAMREKEEQRGLRKYNYTLLRVRLPDGCLLQGTFYARERLGAVYGFVREALQSDWLPFELLASGGQKLSEDENLALNECGLVPSALLTFSWDMAVLEDIKAAGAEPDSILKPELLSAIEKLL
modifications: Atto594 (NHS ester; the UBXD1 proteins were labeled for anisotropy)
notes: also called eUBX-C domain; not shown: GST, N-terminal, cleaved
Molecule B11 yielded a dissociation constant Kd with p97-wt (1–806) of 131 ± 14 µM.

These data come from paper PMC10241913 (Nature Communications, 2023).
